According to PMC3315527 (2012):

T1: OEP61 (recombinant) (Arabidopsis thaliana)
T1 chain: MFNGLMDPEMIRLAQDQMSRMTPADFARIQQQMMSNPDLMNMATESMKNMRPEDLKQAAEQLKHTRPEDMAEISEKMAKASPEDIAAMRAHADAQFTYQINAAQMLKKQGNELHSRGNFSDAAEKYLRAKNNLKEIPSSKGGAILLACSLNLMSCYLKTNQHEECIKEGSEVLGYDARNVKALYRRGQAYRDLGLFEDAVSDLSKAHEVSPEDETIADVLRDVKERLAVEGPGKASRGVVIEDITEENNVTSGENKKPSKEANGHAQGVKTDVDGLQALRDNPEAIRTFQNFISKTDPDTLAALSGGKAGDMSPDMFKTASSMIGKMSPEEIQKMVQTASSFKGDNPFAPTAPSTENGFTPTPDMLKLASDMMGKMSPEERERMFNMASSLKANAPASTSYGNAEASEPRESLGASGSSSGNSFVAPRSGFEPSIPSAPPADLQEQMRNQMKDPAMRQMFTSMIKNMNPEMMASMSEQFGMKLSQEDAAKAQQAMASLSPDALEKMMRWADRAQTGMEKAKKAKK

T2: Toc64 (recombinant) (Pisum sativum)
T2 chain: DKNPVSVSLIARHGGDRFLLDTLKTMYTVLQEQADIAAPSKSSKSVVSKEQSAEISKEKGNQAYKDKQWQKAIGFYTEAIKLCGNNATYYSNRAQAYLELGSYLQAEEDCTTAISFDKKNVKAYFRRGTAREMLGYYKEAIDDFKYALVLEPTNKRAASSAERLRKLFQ

B1: Hsp70-1 (At5g02500), full length (natural protein)
chain: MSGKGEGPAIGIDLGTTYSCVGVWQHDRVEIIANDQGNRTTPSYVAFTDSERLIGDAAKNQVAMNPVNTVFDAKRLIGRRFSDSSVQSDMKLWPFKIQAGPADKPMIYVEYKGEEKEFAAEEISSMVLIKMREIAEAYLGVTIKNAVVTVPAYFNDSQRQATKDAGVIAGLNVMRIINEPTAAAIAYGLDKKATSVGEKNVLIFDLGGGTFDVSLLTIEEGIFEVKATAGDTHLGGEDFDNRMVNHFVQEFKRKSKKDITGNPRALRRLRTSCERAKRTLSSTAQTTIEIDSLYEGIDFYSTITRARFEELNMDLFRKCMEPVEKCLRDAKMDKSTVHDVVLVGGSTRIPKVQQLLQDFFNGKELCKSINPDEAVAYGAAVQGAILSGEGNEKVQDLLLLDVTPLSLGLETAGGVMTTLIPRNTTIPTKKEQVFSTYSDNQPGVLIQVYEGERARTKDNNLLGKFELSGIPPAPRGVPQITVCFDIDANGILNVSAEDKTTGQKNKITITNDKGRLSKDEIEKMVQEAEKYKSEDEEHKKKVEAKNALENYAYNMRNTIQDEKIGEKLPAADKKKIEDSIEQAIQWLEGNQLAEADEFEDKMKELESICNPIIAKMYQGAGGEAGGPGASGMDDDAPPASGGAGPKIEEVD
B2: Hsp90-2 (At5g56030), full length (natural protein)
chain: not shown

Key:
[1] = target: T1, OEP61 (recombinant); test: from ref 7
[2] = target: chaperone receptors within native chloroplast membranes (dynamic TIRE); test: native chloroplast membranes
[3] = target: T2, Toc64 (recombinant); test: from ref 7

Binder	Ka [1]	Kd [2]	Ka [3]
B1	1.03e+09 M⁻¹	109 nM	–
B2	–	114 nM	7.6e+08 M⁻¹
